Measurements: patent US20040105855A1 (Bristol-Myers Squibb, published 2004)

Key:
[1] = target: T1, hu4-1BBIg fusion protein (extracellular domain of H4-1BB fused to the constant domains of a human IgG1 … (human, UniProt Q07011 24-186; P01857 99-330 = IgG part); assay: SPR BIAcore 3000, antibody 10-100 nM over low-density immobilized H4-1BB (557 RU), global fit, Bivalent Analyte Model (Kd1)
T1 construct: extracellular domain;domain: constant domains of a human IgG1 antibody; also called immobilized H4-1BB; Human 4-1BB receptor; not shown: thrombin cleavage site between the 4-1BB and Ig portions
Experimental: (§1) These studies were carried out on a BIAcore 3000 instrument (BIAcore Inc., Piscataway, N.J.). Dilutions of the antibodies were injected under identical conditions over sensorchip surfaces of immobilized H4-1BB.
(§2) Human 4-1BB receptor was immobilized covalently to a low density on a carboxy-methylated dextran surface of a BIAcore sensorchip (BIAcore Inc., Piscataway, N.J.). Through primary amino groups the fusion protein, injected at 2 μg/mL in 10 mM acetate buffer, pH 5.0, bind to an EDC/NHS-activated surface. […] After regenerating with 10 mM glycine, pH 2.0 the surface was ready for binding studies. Antibodies 39E3 and hu39E3.G4 were diluted to concentrations between 10 nM and 100 nM using HBS-EP buffer. All mAb dilutions were injected over two flow cells (FC) at a flow rate of 25 μl/minute. FC1 served as a negative control, FC2 had low density of human 4-1BB (557 RU). Bound anti-human 4-1BB mAbs were removed by regeneration with 10 mM Glycine pH 1.75.
(§3) Kinetic parameters were calculated with BIAevaluation program (version 3.1) (BIAcore Inc., Piscataway, N.J.). A global curve fit analysis was performed using a Bivalent Analyte Model (BIAcore Inc. Piscataway, N.J.). […] The binding affinities for the parental mAb, 39E3, and the humanized anti-H4-1BB mAb are shown below in Table 3.

[2] = target: T1, hu4-1BBIg fusion protein (extracellular …); assay: SPR BIAcore 3000, antibody 10-100 nM over low-density immobilized H4-1BB (557 RU), global fit, Bivalent Analyte Model (KD1)
Experimental: as §1, §2, §3

[3] = target: T1, hu4-1BBIg fusion protein (extracellular …); assay: SPR BIAcore 3000, antibody 10-100 nM over low-density immobilized H4-1BB (557 RU), global fit, Bivalent Analyte Model (KA1)
Experimental: as §1, §2, §3

[4] = target: T1, hu4-1BBIg fusion protein (extracellular …); assay: SPR BIAcore 3000, antibody 10-100 nM over low-density immobilized H4-1BB (557 RU), global fit, Bivalent Analyte Model (Ka1)
Experimental: as §1, §2, §3

T1 sequence (Q07011 other isoform, or with tags, fused parts or gaps): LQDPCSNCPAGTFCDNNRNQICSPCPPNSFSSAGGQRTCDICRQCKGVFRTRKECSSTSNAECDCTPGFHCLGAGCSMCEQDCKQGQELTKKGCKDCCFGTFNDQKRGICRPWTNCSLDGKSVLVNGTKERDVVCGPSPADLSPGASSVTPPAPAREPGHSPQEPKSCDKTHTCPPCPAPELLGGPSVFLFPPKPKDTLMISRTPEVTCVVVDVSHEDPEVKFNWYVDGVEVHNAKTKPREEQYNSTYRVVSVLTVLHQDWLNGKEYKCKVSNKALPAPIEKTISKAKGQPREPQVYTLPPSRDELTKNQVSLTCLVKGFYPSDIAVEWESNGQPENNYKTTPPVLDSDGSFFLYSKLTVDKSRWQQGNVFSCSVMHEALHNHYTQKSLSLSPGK

Row | koff [1] [s⁻¹] | Kd [2] [nM] | Ka [3] [M⁻¹] | kon [4] [M⁻¹ s⁻¹] | Binder
1 | 2.53e-05 | 5.3 | 1.87e+08 | 4740 | hu39E3.G4 (humanized 39E3, IgG4) (antibody, V domains shown, Humanized IgG4 with a hinge mutation (after Angal et al.), made in CHO DG-44; also called humanized 39E3.G4 antibody; humanized anti-H4-1BB mAb) VH: EVQLVESGGGLVQPGGSLRLSCAASGFTFSDYWMSWVRQAPGKGLEWVADIKNDGSYTNYAPSLTNRFTISRDNAKNSLYLQMNSLRAEDTAVYYCARELTGTWGQGTMVTVSS VL: DIVMTQSPDSLAVSLGERATINCKSSQSLLSSGNQKNYLAWYQQKPGQPPKLLIYYASTRQSGVPDRFSGSGSGTDFTLTISSLQAEDVAVYYCLQYDRYPFTFGQGTKLEIKR
2 | 4.77e-05 | 6.7 | 1.48e+08 | 7070 | mAb 39E3 (parental rat anti-human 4-1BB monoclonal antibody) (antibody, V domains shown, constant regions are not; also called parental antibody; parental mAb) VH: EVQLVESGGGLVKPGASLKLSCVASGFTFSDYWMSWVRQTPGKTMEWIGDIKNDGSYTNYAPSLTNRFTISRDNARSTLYLQMNNVRSEDTATYYCTRELTGT VL: DIIMTQSPFSLAVSEGEMVTMNCKSSQSLLSSGNQKNYLAWYQQKPGQPPELLIYYASTRQSGVPDRFIGSGSGTDFLTLTISDVQAEDLADYYCLQYDRYPFT
